# Molecular target: IQGAP1 (Ras GTPase-activating-like protein IQGAP1) (human (endogenous in INT 407)) (UniProt P46940)
# Experiment: co-IP; INT 407 cells non-infected or infected for 45 min with C. jejuni wild-type strain (F38011 or 81-176) or the ∆ciaD mutant; lysis in IP buffer with 50 mM NaCl; IP with mouse anti-IQGAP1 and Protein A/G agarose; immunoblots for RacGAP1, Rac1, Erk 1/2
# Chain of UniProt P46940 (P46940 whole entry): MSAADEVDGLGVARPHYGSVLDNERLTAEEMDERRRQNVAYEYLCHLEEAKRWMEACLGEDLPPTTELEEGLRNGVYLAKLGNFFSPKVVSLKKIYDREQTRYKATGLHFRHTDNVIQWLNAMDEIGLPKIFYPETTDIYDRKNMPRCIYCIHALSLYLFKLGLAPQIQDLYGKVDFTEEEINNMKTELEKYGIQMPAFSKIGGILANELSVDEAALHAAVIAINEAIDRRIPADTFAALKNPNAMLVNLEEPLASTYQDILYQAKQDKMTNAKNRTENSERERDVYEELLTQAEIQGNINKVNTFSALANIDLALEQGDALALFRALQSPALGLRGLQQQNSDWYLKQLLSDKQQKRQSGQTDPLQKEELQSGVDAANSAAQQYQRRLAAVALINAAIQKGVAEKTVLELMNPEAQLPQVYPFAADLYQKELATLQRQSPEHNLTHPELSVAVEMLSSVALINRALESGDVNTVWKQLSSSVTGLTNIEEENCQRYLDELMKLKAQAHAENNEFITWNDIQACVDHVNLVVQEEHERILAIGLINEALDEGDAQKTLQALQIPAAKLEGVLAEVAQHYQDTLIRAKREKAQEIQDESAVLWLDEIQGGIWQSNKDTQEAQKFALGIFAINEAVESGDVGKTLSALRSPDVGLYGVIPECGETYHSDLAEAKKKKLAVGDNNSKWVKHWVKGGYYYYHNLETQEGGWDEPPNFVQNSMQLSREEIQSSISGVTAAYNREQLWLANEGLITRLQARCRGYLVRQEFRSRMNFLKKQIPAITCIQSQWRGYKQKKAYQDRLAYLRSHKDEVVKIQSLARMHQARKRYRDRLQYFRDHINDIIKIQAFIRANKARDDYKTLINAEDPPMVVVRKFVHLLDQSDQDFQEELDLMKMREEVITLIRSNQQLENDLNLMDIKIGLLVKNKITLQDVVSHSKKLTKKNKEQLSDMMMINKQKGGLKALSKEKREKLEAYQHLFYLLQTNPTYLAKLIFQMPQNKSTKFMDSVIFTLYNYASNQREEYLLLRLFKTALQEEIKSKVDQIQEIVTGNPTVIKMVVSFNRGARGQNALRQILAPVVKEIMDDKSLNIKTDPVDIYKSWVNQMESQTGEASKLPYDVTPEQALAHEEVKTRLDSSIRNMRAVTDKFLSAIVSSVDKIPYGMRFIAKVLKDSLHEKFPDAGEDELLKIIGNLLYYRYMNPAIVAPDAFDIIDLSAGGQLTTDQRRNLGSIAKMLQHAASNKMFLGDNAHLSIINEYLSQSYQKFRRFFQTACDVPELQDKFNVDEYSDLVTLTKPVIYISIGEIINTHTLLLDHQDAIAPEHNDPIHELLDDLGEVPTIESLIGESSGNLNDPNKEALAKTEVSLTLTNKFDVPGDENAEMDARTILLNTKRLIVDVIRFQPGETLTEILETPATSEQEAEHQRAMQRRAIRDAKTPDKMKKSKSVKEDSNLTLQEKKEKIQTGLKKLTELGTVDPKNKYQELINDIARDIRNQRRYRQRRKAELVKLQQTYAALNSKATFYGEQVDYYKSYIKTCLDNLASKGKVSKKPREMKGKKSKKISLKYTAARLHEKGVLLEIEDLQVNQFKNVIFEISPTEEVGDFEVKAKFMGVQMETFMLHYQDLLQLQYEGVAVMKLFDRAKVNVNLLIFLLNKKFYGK
substance,measurement,value
CiaD effector protein of the C. jejuni F38011 wild-type strain (from UniProt Q0PAA2 1-163) (natural protein),reduction of RacGAP1 in the IQGAP1 complex on infection with the wild-type strain,50%
